Paper PMC10454854, “Structural and Biochemical Analysis of the Recombination Mediator Protein RecR from Campylobacter jejuni” (International Journal of Molecular Sciences, 2023)

What was measured:
[1] = molecular target: the molecule itself; test: SEC; cjRecR alone (~300 μg in 300 μL), Superdex 200 10/300, 20 mM Tris pH 8.0, 150 mM NaCl, 5 mM βME; size against gel-filtration standards
[2] = molecular target: the molecule itself; test: crystal structure; crystal of cjRecR (residues 1-190), four subunits in the asymmetric unit; sitting drop, 18 °C, 17% ethanol, 0.1 M Hepes pH 7.5, 0.25 M magnesium chloride; 2.6 Å
cjRecR = molecular target: T1, cjRecR (Campylobacter jejuni, UniProt Q9PN35 1-190); test: fluorescence polarization; Fluorescence polarization: 0.8 nM fluorescein 40-mer ssDNA, protein up to 100 uM, one-site fit; buffer, salt, pH and temperature not stated; settings: protein: recombinant; tags: His6 tag removed with thrombin; chain copies: 4; single strand
T1 sequence: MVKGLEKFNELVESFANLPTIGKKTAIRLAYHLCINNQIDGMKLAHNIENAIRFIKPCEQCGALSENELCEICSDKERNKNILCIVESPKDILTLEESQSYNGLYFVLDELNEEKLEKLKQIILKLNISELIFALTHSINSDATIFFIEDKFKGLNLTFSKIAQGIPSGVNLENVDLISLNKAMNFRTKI

B1: Campylobacter jejuni RecR (natural protein, UniProt Q9PN35 1-190, looked up)
chain: MVKGLEKFNELVESFANLPTIGKKTAIRLAYHLCINNQIDGMKLAHNIENAIRFIKPCEQCGALSENELCEICSDKERNKNILCIVESPKDILTLEESQSYNGLYFVLDELNEEKLEKLKQIILKLNISELIFALTHSINSDATIFFIEDKFKGLNLTFSKIAQGIPSGVNLENVDLISLNKAMNFRTKI
notes: RecR of Campylobacter jejuni subsp. jejuni (ATCC 33291), residues 1-190; cloned by PCR from genomic DNA; Expressed from a pET49b variant with an N-terminal hexahistidine tag and a thrombin site; Residues 1-189 are seen in the structure; also called cjRecR; source: E. coli BL21 (DE3), purified (Ni-NTA, thrombin cleavage, Mono Q anion exchange); not shown: His6, N-terminal, cleaved
With B1 as the binder, how does the “stoichiometry N” value [1] read?
The value was 2.

And the “stoichiometry N” value [2]?
The value was 4.

Which Kd (cjRecR) does the source give for TTATAGGCATATAGGAGTAATTTTCTTGGGCTATGCAGTA (ssDNA) [40-mer ssDNA] here?
The Kd was 6.8 µM.
